In the supplement of paper PMC10567573:
± gives the standard deviation.

Assay: protein stability index of a GFP-peptide fusion (GPS, HEK-293T) (PSI 1-6); higher = more stable
[1] = treatment: DMSO, c terminus: a fixed tail appended
[2] = treatment: MLN4924 1 uM, 8 h, c terminus: a fixed tail appended
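Note: 24-mer peptide tiles fused after GFP, lentivirally expressed, FACS-sorted into six equal bins by GFP/DsRed ratio, decoded by Illumina sequencing, PSI is the read-weighted mean bin number.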

Sequence	protein stability index [1]	protein stability index [2]	protein stability index (treatment: DMSO, c terminus: native)	protein stability index (treatment: MLN4924 1 uM, 8 h, c terminus: native)
DISPPIFRRGEKLRVISDEGGWWK [SLA]	3.02 ± 0.71	2.87 ± 0.42		
DLASAAAKQIMEETYKMEFMYSGV [INTS4]	2.58 ± 0.52	2.5 ± 0.16		
DLFEKKGYTFDYAYDWVGRPIPTP [CSNK1G1]	2.26 ± 0.58	2.37 ± 0.29		
DLLNNKLVTLPVSFAQLKNLKWLD [LRRC59]	2.24 ± 0.23	2.17 ± 0.31		
DMRNSATFKSFEDRVGTIKSKVVG [TPD52L2]	3.24 ± 0.16	3.61 ± 0.23		
DNPSVLSGPMQAALQAAAHASVDI [SMG5]	4.05 ± 0.14	4.29 ± 0.26		
DPACYEFLWGPRALVETSYVKVLH [MAGEA3]	2.12 ± 0.2	2.12 ± 0.36		
DPIVRPLWWIAPGDETAHRIDSQF [MYORG]	3.23 ± 0.18	3.24 ± 0.27		
DPNKMAFGCEECGKKYNTMLGYKR [PLAGL1]	3.07 ± 0.49	3.46 ± 0.64		
DPVLAKVAGDCLDEKQCKQCANKV [LRRC59]	4.99 ± 0.42	5.07 ± 0.09		
DQEQGSSFQMSEGSEAAVIPLDLG [FAM189A2]	5.34 ± 0.35	5.48 ± 0.17		
DQSDEGSSSQKEESPSTLQVLPDS [MAGEA10]	5.66 ± 0.21	5.56 ± 0.16		
DRKARKPLVEKKRRARINESLQEL [HES6]	4.37 ± 0.22	4.71 ± 0.13		
DRSTEPDRLQVFHKRAIMPYGVYK [ATE1]	3.44 ± 0.24	3.47 ± 0.26		
DSCVLTGPDDSLWDKHACPAYVGP [TRIB3]	3.65 ± 0.33	3.62 ± 0.19		
DSGASAITRESHTHRDRPSQQQPL [CSNK1G1]	5.09 ± 0.15	5.15 ± 0.17		
DSLTSLQWLQEFSILNAKAPALPP [FOXJ1]	2.26 ± 0.043	2.19 ± 0.075		
DSSEEKHLEEPGETQNAFLNERKQ [CHGB]	5.5 ± 0.41	5.41 ± 0.36		

Sequence	protein stability index [1]	protein stability index [2]	protein stability index (treatment: DMSO, c terminus: native)	protein stability index (treatment: MLN4924 1 uM, 8 h, c terminus: native)
DSVSVNDIDLSLYIPRDVDETGIT [ZC3H15]	3.76 ± 0.15	4.36 ± 0.11		
DTDKWIQKAPMTTVRGLHCMCTVG [KLHL13]	2.32 ± 0.25	2.81 ± 0.35		
DTYDSVYLHPNSYSCACLASGSVL [HDAC6]	2.21 ± 0.15	2.3 ± 0.25		
DVAGNLDYKALSYVITHGEEKEE [MYL5]			2.62 ± 0.7	3.56 ± 1.1
DVALVLTVLLEEETLEASVGPRET [TOR1AIP2]	2.49 ± 0.51	2.27 ± 0.31		
DYIRRYLPVLRGFPAKYIYDPWNA [CRY1]	2.53 ± 0.5	2.16 ± 0.2		
DYLDLDKMSLYSEADSGYGSYGGF [TRIM9]	2.46 ± 0.51	2.77 ± 0.24		
EAAEGKSLGSALKPGEGRSALFAG [TRIM29]	4.87 ± 0.17	4.76 ± 0.19		
EAANLLIPAVGSSLSEALDLIESD [MYBL2]	4.81 ± 0.14	4.72 ± 0.2		
EAAPRQCIELYFDEKYSIEPSWEC [NETO1]	2.48 ± 0.2	2.73 ± 0.57		
EALAATWEQPWASEVFGPERMPPS [PXN]	3.33 ± 0.27	3.5 ± 0.47		
EALGLEAEGAVPETQTLTGWSKGF [RHOBTB1]	3.79 ± 0.098	4.05 ± 0.27		
EALKHPWICQRSTVASMMHRQETV [CAMK2D]	2.81 ± 0.28	2.73 ± 0.25		
EALVRTVLRAGDREDITEPAICAL [CTNNB1]	3.45 ± 0.29	3.6 ± 0.51		
EANNLAAAASAKDIYYNNMEEVCG [ATL3]	4.69 ± 0.26	4.68 ± 0.18		
EAVLHCHQMGVVHRDLKPENLLLA [CAMK2A]	2.64 ± 0.27	2.58 ± 0.38		
ECGKAFSQSSYLSQHRRIHSGEKP [ZNF232]	3.57 ± 0.28	3.61 ± 0.15		
ECYDPRTQQWTAICPLKERRFGAV [GAN]	2.69 ± 0.18	2.62 ± 0.3		
